This note sets out measurements from paper PMC9561379.

Assay [1] has as its target asymmetric nucleosome MB/WT (MB-modified H2A/H2B S112C dimer in the upstream position, WT dimer downstream) (Xenopus) (UniProt P06897).
The target in assay [2] is asymmetric nucleosome WT/MB (WT dimer in the upstream position, MB-modified H2A/H2B S112C dimer downstream) (Xenopus) (UniProt P06897).
In assay [3] the target is H2B S112C-MB nucleosome (MB-modified H2B S112C) (Xenopus).
For assay [4], the target named is asymmetric nucleosome MB/WT (MB-modified H2A/H2B S112C dimer in the upstream position, WT dimer downstream) (Xenopus) (UniProt P06897). Briefly: native gel or EMSA; asymmetrically modified nucleosomes on Cy5-labelled DNA incubated with or without streptavidin, 5% acrylamide nucleoprotein gels, imaged by fluorography.
Assay [5] has as its target asymmetric nucleosome WT/MB (WT dimer in the upstream position, MB-modified H2A/H2B S112C dimer downstream) (Xenopus) (UniProt P06897). Described as above.
For assay [6], the target named is H2A G2C-MB nucleosome (100% MB-modified H2A G2C, both H2A N-tails biotinylated) (Xenopus). The assay is described as follows: native gel or EMSA; biotin-modified or unmodified nucleosomes (radiolabelled 601 DNA) incubated with streptavidin in TE buffer for 10 min at room temperature, run on 6% native PAGE (legend of Figure 2B: 5%); mobility shift.

Sequence of streptavidin (P22629 25-183): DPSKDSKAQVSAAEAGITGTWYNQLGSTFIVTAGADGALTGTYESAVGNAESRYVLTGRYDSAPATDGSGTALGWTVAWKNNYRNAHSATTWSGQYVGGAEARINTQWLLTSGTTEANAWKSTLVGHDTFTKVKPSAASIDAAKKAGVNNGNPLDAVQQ

“RSC (Remodels the Structure of Chromatin) complex, yeast (from UniProt P32597 1-1359; Q06168 1-426; Q06488 1-889; Q02206 1-625; Q07979 1-502; Q12406 1-477; Q05123 1-467)”: the fraction of RSC-mobilized, streptavidin-bound nucleosomes protected from Hind III digestion at the downstream end (about 40% without streptavidin) in assay [1] came to 80%. For the same substance, the fraction of RSC-mobilized, streptavidin-bound nucleosomes protected from Hind III digestion at the downstream end (about 40% without streptavidin) in assay [2] was 20%. Further, in assay [3], the rate of HhaI digestion during RSC remodeling, nucleosomes with one streptavidin bound (1SA) against unbound nucleosomes stood at 2 fold slower and the rate of HhaI digestion during RSC remodeling, nucleosomes with two streptavidins bound (2SA) against the unbound control was 20 fold slower.
“streptavidin (from UniProt P22629 25-183) (natural protein)”: the stoichiometry N (streptavidin per nucleosome) in assay [4], in assay [5] and in assay [6] was 1 throughout.
